From US20200123233A1
pIC50, pKd: −log10 of the molar value.

Tests used:
[1] = biological target: FTM-NN (membrane anchorless form of the Long fusion protein, 70 kDa) (human respiratory syncytial virus, strain Long) (UniProt P12568)
[2] = biological target: F protein of RSV A-2 (human respiratory syncytial virus, strain A-2) (UniProt P03420); experiment: cell-based or functional assay
[3] = biological target: F protein of RSV B-1 (human respiratory syncytial virus, strain B-1) (UniProt P13843); experiment: cell-based or functional assay
[4] = biological target: F protein of RSV Long (RSV LONG M-2) (human respiratory syncytial virus, strain Long) (UniProt P12568); experiment: cell-based or functional assay
[5] = biological target: FTM-NN (membrane anchorless form of the Long fusion protein, 70 kDa) (human respiratory syncytial virus, strain Long) (UniProt P12568); experiment: SPR (Biacore), FTM-NN immobilised
[6] = biological target: F protein of hRSV strain B-1 (human respiratory syncytial virus, strain B-1 (ATCC VR-1580)) (UniProt P13843); experiment: cell-based or functional assay
[7] = biological target: F protein of hRSV strain Long (human respiratory syncytial virus, strain Long (ATCC VR-26)) (UniProt P12568); experiment: cell-based or functional assay

Synagis Fab
pIC50 [1]: 9.22

Synagis® (Palivizumab, MedImmune, humanized monoclonal antibody)
RSV neutralization IC50 (nM) (n = 2), A-2 [2]: 2.5 nM | RSV neutralization IC50 (nM) (n = 2), B1 [3]: 1.7 nM | RSV neutralization IC50 (nM) (n = 2), Long [4]: 4 nM | pKd [5]: 9.19 | koff [5]: 0.00018 s⁻¹ | kon [5]: 280000 M⁻¹ s⁻¹

Numax Fab (Motavizumab or MEDI-524; WO 06/050166)
pIC50 [1]: 10.07

Synagis (Palivizumab, MedImmune, humanized monoclonal antibody)
Neutralization IC50 (nM), B-1 (first assay) [6]: 2.1 nM | Neutralization IC50 (nM), B-1 (second assay) [6]: 2.9 nM | Neutralization IC50 (nM), Long (first assay) [7]: 7.3 nM | Neutralization IC50 (nM), Long (second assay) [7]: 6 nM

101F Fab (WO 06/050280)
pIC50 [1]: 8.95
